Data taken from patent US20070136826A1 (Biogen, published 2007).

T1: Mouse CD20 with C-terminal Idectin peptide tag, on transfected CHO cells (mouse, UniProt P19437 1-291)
T1 construct: also called CHO-CD20; CHO cells transfected with mouse CD20; not shown: Idectin peptide tag at the 3' end of the gene (N5K-CtIdectin-B7.1-Ig vector)
T1 sequence: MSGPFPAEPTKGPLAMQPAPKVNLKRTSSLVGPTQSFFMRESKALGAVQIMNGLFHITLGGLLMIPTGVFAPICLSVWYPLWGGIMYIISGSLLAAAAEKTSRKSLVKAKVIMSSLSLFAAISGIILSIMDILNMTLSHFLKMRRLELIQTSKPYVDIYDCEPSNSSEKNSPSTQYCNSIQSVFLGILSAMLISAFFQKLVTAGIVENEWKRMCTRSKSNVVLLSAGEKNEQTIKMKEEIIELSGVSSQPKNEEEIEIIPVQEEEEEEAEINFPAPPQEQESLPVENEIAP

T2: Mouse CD20 with C-terminal V5 peptide tag, on transfected 300.18 cells (mouse, UniProt P19437 1-291)
T2 sequence: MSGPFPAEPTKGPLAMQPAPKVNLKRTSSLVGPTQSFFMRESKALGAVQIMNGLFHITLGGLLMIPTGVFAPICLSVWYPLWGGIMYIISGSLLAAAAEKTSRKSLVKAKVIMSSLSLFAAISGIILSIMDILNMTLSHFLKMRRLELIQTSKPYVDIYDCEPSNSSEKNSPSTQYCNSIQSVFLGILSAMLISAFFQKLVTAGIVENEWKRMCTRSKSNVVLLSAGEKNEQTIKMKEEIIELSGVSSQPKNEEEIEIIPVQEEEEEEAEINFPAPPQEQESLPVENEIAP

T3: Mouse CD20 (endogenous, on mouse B cell lines and splenic B cells) (mouse, UniProt P19437 1-291)
T3 construct: also called mCD20
T3 sequence: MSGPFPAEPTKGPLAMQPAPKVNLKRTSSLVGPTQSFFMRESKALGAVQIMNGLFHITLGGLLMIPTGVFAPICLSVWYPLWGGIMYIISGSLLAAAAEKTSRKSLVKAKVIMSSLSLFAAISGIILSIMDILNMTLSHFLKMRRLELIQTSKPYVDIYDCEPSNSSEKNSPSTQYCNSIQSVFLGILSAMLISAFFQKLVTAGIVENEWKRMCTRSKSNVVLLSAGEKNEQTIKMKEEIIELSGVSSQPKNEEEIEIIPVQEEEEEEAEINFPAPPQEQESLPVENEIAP

T4: Rat CD20 (rat, UniProt D4A4Y3 1-287)
T4 construct: whole, on cells; also called CD20 on rat splenic B cells and rat B cell lines
T4 sequence: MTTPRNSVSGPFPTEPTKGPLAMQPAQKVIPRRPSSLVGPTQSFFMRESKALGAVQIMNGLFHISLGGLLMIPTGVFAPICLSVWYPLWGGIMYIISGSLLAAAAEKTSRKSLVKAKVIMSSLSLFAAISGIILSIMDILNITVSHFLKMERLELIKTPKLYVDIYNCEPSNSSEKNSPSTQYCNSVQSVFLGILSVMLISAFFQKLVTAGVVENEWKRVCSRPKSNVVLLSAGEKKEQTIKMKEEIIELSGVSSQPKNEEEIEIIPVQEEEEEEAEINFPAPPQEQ


Legend:
[1] = target: Mouse CD20 (endogenous, on mouse B cell lines and splenic B cells) (mouse) (UniProt P19437); assay: flow cytometry on A20 cells; isotype control, PE-anti-mouse IgG2b
[2] = target: Mouse CD20 (endogenous, on mouse B cell lines and splenic B cells) (mouse) (UniProt P19437); assay: flow cytometry on NS-1 cells; isotype control, PE-anti-mouse IgG2b
[3] = target: Mouse CD20 with C-terminal Idectin peptide tag, on transfected CHO cells (mouse) (UniProt P19437); assay: flow cytometry on CHO-CD20 cells; isotype control, PE-anti-mouse IgG2b
[4] = target: Mouse CD20 (endogenous, on mouse B cell lines and splenic B cells) (mouse) (UniProt P19437); assay: flow cytometry on WEHI 279 cells; isotype control, PE-anti-mouse IgG2b
[5] = target: Mouse CD20 (endogenous, on mouse B cell lines and splenic B cells) (mouse) (UniProt P19437); assay: flow cytometry on BCL 1/3B3 cells; isotype control, PE-anti-mouse IgG2b
[6] = target: Mouse CD20 with C-terminal V5 peptide tag, on transfected 300.18 cells (mouse) (UniProt P19437); assay: flow cytometry on 300.18-CD20 cells; isotype control, PE-anti-mouse IgG2b
[7] = target: Mouse CD20 (endogenous, on mouse B cell lines and splenic B cells) (mouse) (UniProt P19437); assay: flow cytometry on wild type C57Bl/6 splenocytes; isotype control, PE-anti-mouse IgG2b
[8] = target: T1, Mouse CD20 with C-terminal Idectin …; assay: flow cytometry on transfected CHO cells
Method: (§1) Cell Staining and Flow Cytometry Analyses. All staining procedures were done in round bottom 96-well plates (Corning 3799) in FACS buffer (Dulbecco's PBS supplemented with 2% FBS, 0.05% sodium azide, 10% normal goat serum (heat inactivated), and 2.4G2 (1 ug/ml). None of the monoclonal secondary antibodies used recognized rat IgG2b (the 2.4G2 antibody). Cells (1×10⁵ to 1×10⁶) were incubated with primary or secondary antibodies for 45 minutes each on ice, washed between incubations, and resuspended at 1×10⁶ cells/ml in FACS buffer for analyses. Fluorescence was measured on a FACSArray or FACSCalibur and analyzed with BD FACSArray System Software or Cell Quest Pro software.

[9] = target: T2, Mouse CD20 with C-terminal V5 peptide …; assay: flow cytometry on transfected 300.18 cells
Method: as §1

[10] = target: T3, Mouse CD20 (endogenous, on mouse B cell …); assay: summary of Example 1; flow cytometry on cells
Method: as §1

[11] = target: T4, Rat CD20; assay: flow cytometry staining of rat splenic B cells and two rat B cell lines

| Molecule | geometric mean of fluorescence intensity [1] | geometric mean of fluorescence intensity [2] | geometric mean of fluorescence intensity [3] | geometric mean of fluorescence intensity [4] | geometric mean of fluorescence intensity [5] | geometric mean of fluorescence intensity [6] | geometric mean of fluorescence intensity [7] | binding result [8] | binding result [9] | binding result [10] | binding result [11] |
| --- | --- | --- | --- | --- | --- | --- | --- | --- | --- | --- | --- |
| IgG2b isotype control antibody | 3.4 | 3.8 | 3.6 | 5.9 | 4.2 | 4.1 | 3.8 |  |  |  |  |
| 18B12 IgG1 mouse anti-mouse CD20 monoclonal antibody (antibody, V domains shown, N-terminal pyroglutamic acid (N-terminal glutamine blocked), also called 18B12 antibody; 18B12-A1C3-H3) VH: QVQLQQPGAELVRPGTSVKLSCKASGYTFTSYWMHWIKQRPGQGLEWIGVIDPSDNYTKYNQKFKGKATLTVDTSSSTAYMQLSSLTSEDSAVYFCAREGYYGSSPWFAYWGQGTLVTVSS VL: QIVMSQSPAILSASPGEKVTMTCRARSSVSYIHWYQQKPGSSPKPWIYATSNLASGVPGRFSGSGSGTSYSLTITRVEAEDAATYYCQQWSSKPPTFGGGTKLEIKR |  |  |  |  |  |  |  | binds | binds | binds | no binding |
